# Measurements published in PMC8263569.
# Biological target: P622-G772A/S773A (ADGRG2-P622 with G772 and S773 of the ECL2 changed to alanine) (human) (UniProt Q8IZP9)
# UniProt Q8IZP9, sequence (Q8IZP9 622-1017 G772A/S773A): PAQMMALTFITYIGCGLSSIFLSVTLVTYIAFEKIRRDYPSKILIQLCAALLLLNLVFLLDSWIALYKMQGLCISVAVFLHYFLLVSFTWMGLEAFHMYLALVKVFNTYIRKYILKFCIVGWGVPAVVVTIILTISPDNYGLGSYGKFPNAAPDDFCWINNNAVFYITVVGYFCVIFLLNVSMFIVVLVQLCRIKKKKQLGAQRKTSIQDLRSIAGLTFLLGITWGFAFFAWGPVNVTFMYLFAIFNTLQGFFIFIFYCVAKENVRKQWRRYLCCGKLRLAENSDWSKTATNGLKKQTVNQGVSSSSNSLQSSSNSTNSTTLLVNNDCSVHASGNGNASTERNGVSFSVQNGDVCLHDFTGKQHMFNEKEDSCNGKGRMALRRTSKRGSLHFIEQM
substance,measurement,value
synthetic P-15 (15-amino acid long Stachel peptide of ADGRG2),"CRE-luciferase reporter response to P-15, reduction against P622-CWI",30%
same,"SRE-luciferase reporter response to P-15, reduction against P622-CWI",40%
